The source of these data is paper PMC12373895.

For orientation: Kd means the equilibrium constant for the complex coming apart. Read a high Kd as lower affinity.

Common to all, as to assay: ELONA
One series deals with T1, ERA deltaKH (Staphylococcus aureus, UniProt Q2FY06 1-202).
T1 sequence: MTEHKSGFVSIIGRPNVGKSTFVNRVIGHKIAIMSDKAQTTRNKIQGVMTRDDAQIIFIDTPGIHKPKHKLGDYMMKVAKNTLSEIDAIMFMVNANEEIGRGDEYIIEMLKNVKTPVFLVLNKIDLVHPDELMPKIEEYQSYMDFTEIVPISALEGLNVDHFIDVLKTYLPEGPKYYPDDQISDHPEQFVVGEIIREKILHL

The target in series [1] is T2, 1F8 (Chagas antigenic protein) (Trypanosoma cruzi, UniProt P07749 1-211).
T2 sequence: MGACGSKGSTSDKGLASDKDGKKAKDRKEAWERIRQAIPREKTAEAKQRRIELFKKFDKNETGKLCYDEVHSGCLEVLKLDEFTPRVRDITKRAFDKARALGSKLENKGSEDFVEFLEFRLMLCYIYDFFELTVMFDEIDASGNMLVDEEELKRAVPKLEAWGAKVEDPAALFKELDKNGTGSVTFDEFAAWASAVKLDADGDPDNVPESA

In series [2] the target is T3, ERA GTPase (Staphylococcus aureus, UniProt Q2FY06 1-299).
T3 sequence: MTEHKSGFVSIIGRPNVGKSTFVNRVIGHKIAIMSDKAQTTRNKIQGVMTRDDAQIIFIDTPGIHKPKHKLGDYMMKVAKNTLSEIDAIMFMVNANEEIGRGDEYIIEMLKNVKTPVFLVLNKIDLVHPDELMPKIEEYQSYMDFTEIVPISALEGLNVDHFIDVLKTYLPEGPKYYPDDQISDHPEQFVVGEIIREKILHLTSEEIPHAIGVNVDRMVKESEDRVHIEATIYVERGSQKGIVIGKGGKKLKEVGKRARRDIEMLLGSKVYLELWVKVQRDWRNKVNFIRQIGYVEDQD

Series [3] has as its target T3, ERA GTPase. The source holds these as a separate data set.

B1: AptERA 2 (40 nt) (ssDNA)
DNA: TACTAGCCCTACCTGTACTCTCGAGCCGATTTTAAGGATC
Regarding B1, the binding result (with ERA deltaKH; in series [1]) was “no binding” each time. Besides, in the series with ERA GTPase [2], the “apparent K (half saturation)” value was found to be 185 ± 3 nM. Further, the Kd with ERA GTPase [3] is 243 ± 16 nM.
